Residue numbers refer to the chain shown, from its start. In names and notes the source's numbering stands. One block for each binder: values may come before it.
Legend:
[1] = biological target: T1, CD28 endogenously expressed on Jurkat/IL2 reporter cells (human, UniProt P10747 19-220); experiment: flow cytometry, Jurkat cells (CD28), Fc fusion at 33.3 nM
T1 construct: whole, on cells; Target on Jurkat cells; also called Jurkats (CD28)

[2] = biological target: T2, human CTLA4 expressed on CHO cells (human, UniProt P16410 36-223); experiment: flow cytometry, CHO cells stably expressing CTLA4, Fc fusion at 33.3 nM
T2 construct: whole, on cells; Target on CHO cells stably expressing CTLA4; also called huCTLA4
T2 sequence (P16410 36-223): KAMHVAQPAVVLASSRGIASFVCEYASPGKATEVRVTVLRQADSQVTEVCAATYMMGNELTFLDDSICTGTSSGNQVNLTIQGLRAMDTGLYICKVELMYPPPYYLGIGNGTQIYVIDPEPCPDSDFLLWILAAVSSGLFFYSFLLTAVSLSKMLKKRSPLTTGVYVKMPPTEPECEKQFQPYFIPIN

human PD-L1 [3] = biological target: T3, human PD-L1 (human, UniProt Q9NZQ7 19-290); experiment: flow cytometry MFI relative to WT CD80 IgV-Fc, CHO/huPD-L1 cells, 33.3 nM
T3 construct: whole, on cells; CHO cells stably expressing huPD-L1; also called huPD-L1
T3 sequence (Q9NZQ7 19-290): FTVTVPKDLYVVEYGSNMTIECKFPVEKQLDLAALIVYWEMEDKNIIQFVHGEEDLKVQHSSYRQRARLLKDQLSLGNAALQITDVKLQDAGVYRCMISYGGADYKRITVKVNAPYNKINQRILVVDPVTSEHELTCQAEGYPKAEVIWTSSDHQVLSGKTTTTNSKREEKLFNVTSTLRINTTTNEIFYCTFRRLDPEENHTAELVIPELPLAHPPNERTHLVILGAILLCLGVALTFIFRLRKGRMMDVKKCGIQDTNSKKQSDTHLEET

human CTLA-4 [4] = biological target: T4, human CTLA-4 (human, UniProt P16410 36-223); experiment: flow cytometry MFI relative to WT CD80 IgV-Fc, CHO/huCTLA-4 cells, 33.3 nM
T4 construct: whole, on cells; CHO cells stably expressing huCTLA4; also called huCTLA4
T4 sequence (P16410 36-223): as the sequence (P16410 36-223) above

human CD28 [5] = biological target: T5, human CD28 (human, UniProt P10747 19-220); experiment: flow cytometry MFI relative to WT CD80 IgV-Fc, Jurkat cells (CD28), 33.3 nM
T5 construct: whole, on cells; Jurkat/IL2 reporter cells, which endogenously express CD28

human PD-L1 [6] = biological target: T3, human PD-L1; experiment: flow cytometry, MFI on CHO/huPD-L1 cells divided by MFI on Jurkat cells (CD28), 33.3 nM
human PD-L1 [7] = biological target: T3, human PD-L1; experiment: flow cytometry, CHO cells stably expressing huPD-L1, 33.3 nM Fc fusion, PE anti-human Fc
human CTLA-4 [8] = biological target: T4, human CTLA-4; experiment: flow cytometry, CHO cells stably expressing huCTLA-4, 33.3 nM Fc fusion, PE anti-human Fc
human CD28 [9] = biological target: T5, human CD28; experiment: flow cytometry, Jurkat/IL2 reporter cells (endogenous CD28), 33.3 nM Fc fusion, PE anti-human Fc
[10] = biological target: T6, human PD-L1 expressed on CHO cells (human, UniProt Q9NZQ7 19-290); experiment: flow cytometry, CHO cells stably expressing PD-L1, Fc fusion at 33.3 nM
T6 construct: whole, on cells; Target on CHO cells stably expressing PD-L1; also called huPD-L1
T6 sequence (Q9NZQ7 19-290): as the sequence (Q9NZQ7 19-290) above

[11] = biological target: T7, human CD28, endogenously expressed on Jurkat/IL2 reporter cells (human, UniProt P10747 19-220); experiment: flow cytometry, Jurkat/IL2 reporter cells (endogenous CD28), 33.3 nM Fc fusion, PE anti-human Fc
T7 construct: This is the endogenous CD28 of Jurkat cells

- MFI at 33.3 nM [1]: 642 MFI
- MFI at 33.3 nM [2]: 33600 MFI
B1: CD80 E35D/N48K/V68M IgV-Fc (Fc fusion, not shown: small tags and cut ends; a dimerising Fc or GST)
chain: VIHVTKEVKEVATLSCGHNVSVEELAQTRIYWQKDKKMVLTMMSGDMKIWPEYKNRTIFDITNNLSIMILALRPSDEGTYECVVLKYEKDAFKREHLAEVTLSVKAD

- Fold change to WT CD80 (human PD-L1 [3]): 412 fold
- Fold change to WT CD80 (human CTLA-4 [4]): 12.3 fold
- Fold change to WT CD80 (human CD28 [5]): 71.1 fold
- Ratio of PDL1:CD28 (human PD-L1 [6]): 9.4 ratio
- MFI at 33.3 nM (human PD-L1 [7]): 68000 MFI
- MFI at 33.3 nM (human CTLA-4 [8]): 17000 MFI
- MFI at 33.3 nM (human CD28 [9]): 7250 MFI
B7: variant CD80 IgV-Fc (inert) H18L/A26N/D46E/V68M/A71G/D90G (Fc fusion)
chain: B1 chain with H18L, A26N, D35E, D46E, K48N, A71G, D90G
notes: not shown: inert human IgG1 Fc

- Fold change to WT CD80 (human PD-L1 [3]): 401 fold
- Fold change to WT CD80 (human CTLA-4 [4]): 18.4 fold
- Fold change to WT CD80 (human CD28 [5]): 80.3 fold
- Ratio of PDL1:CD28 (human PD-L1 [6]): 8.1 ratio
- MFI at 33.3 nM (human PD-L1 [7]): 66200 MFI
- MFI at 33.3 nM (human CTLA-4 [8]): 25400 MFI
- MFI at 33.3 nM (human CD28 [9]): 8190 MFI
B10: variant CD80 IgV-Fc (inert) H18V/A26G/E35D/M47V/V68M/A71G/D90G (Fc fusion)
chain: B1 chain with H18V, A26G, M47V, K48N, A71G, D90G
notes: as for B7

- Fold change to WT CD80 (human PD-L1 [3]): 409 fold
- Fold change to WT CD80 (human CTLA-4 [4]): 16 fold
- Fold change to WT CD80 (human CD28 [5]): 61.3 fold
- Ratio of PDL1:CD28 (human PD-L1 [6]): 10.8 ratio
- MFI at 33.3 nM (human PD-L1 [7]): 67500 MFI
- MFI at 33.3 nM (human CTLA-4 [8]): 22100 MFI
- MFI at 33.3 nM (human CD28 [9]): 6250 MFI
B11: variant CD80 IgV-Fc (inert) H18V/A26D/E35D/M47V/V68M/A71G/D90G (Fc fusion)
chain: B1 chain with H18V, A26D, M47V, K48N, A71G, D90G
notes: as for B7

- Fold change to WT CD80 (human PD-L1 [3]): 415 fold
- Fold change to WT CD80 (human CTLA-4 [4]): 15.1 fold
- Fold change to WT CD80 (human CD28 [5]): 13.4 fold
- Ratio of PDL1:CD28 (human PD-L1 [6]): 50.1 ratio
- MFI at 33.3 nM (human PD-L1 [7]): 68500 MFI
- MFI at 33.3 nM (human CTLA-4 [8]): 20900 MFI
- MFI at 33.3 nM (human CD28 [9]): 1370 MFI
B12: variant CD80 IgV-Fc (inert) H18T/A26N/E35D/M47L/V68M/A71G (Fc fusion)
chain: B1 chain with H18T, A26N, M47L, K48N, A71G
notes: as for B7

Second part, the binder before the results:

B2: variant CD80 IgV-Fc (inert) H18Y/A26P/E35D/M47I/V68M/A71G (Fc fusion)
chain: B1 chain with H18Y, A26P, M47I, K48N, A71G
notes: as for B7
- Fold change to WT CD80 (human PD-L1 [3]): 330 fold
- Fold change to WT CD80 (human CTLA-4 [4]): 8.8 fold
- Fold change to WT CD80 (human CD28 [5]): 50.2 fold
- Ratio of PDL1:CD28 (human PD-L1 [6]): 10.6 ratio
- MFI at 33.3 nM (human PD-L1 [7]): 54500 MFI
- MFI at 33.3 nM (human CTLA-4 [8]): 12200 MFI
- MFI at 33.3 nM (human CD28 [9]): 5120 MFI

B3: variant CD80 IgV-Fc (inert) H18C/A26P/E35D/M47L/V68M/A71G (Fc fusion)
chain: B1 chain with H18C, A26P, M47L, K48N, A71G
notes: as for B7
- Fold change to WT CD80 (human PD-L1 [3]): 406 fold
- Fold change to WT CD80 (human CTLA-4 [4]): 16.9 fold
- Fold change to WT CD80 (human CD28 [5]): 18.7 fold
- Ratio of PDL1:CD28 (human PD-L1 [6]): 35.2 ratio
- MFI at 33.3 nM (human PD-L1 [7]): 67000 MFI
- MFI at 33.3 nM (human CTLA-4 [8]): 23400 MFI
- MFI at 33.3 nM (human CD28 [9]): 1910 MFI

B4: CD80 M47V/V68M/K89N IgV-Fc (Fc fusion, not shown: small tags and cut ends; a dimerising Fc or GST)
chain: B1 chain with D35E, M47V, K48N, K89N
- MFI at 33.3 nM [1]: 1320 MFI
- MFI at 33.3 nM [2]: 24800 MFI
- MFI at 33.3 nM [10]: 11800 MFI

B5: variant CD80 IgV-Fc (inert) H18V/A26K/E35D/M47L/V68M/A71G (Fc fusion)
chain: B1 chain with H18V, A26K, M47L, K48N, A71G
notes: as for B7
- Fold change to WT CD80 (human PD-L1 [3]): 408 fold
- Fold change to WT CD80 (human CTLA-4 [4]): 16.6 fold
- Fold change to WT CD80 (human CD28 [5]): 35.7 fold
- Ratio of PDL1:CD28 (human PD-L1 [6]): 18.5 ratio
- MFI at 33.3 nM (human PD-L1 [7]): 67300 MFI
- MFI at 33.3 nM (human CTLA-4 [8]): 22900 MFI
- MFI at 33.3 nM (human CD28 [9]): 3640 MFI

B6: variant CD80 IgV-Fc (inert) H18Y/A26P/E35D/M47Y/V68I/A71G/D90G (Fc fusion)
chain: B1 chain with H18Y, A26P, M47Y, K48N, M68I, A71G, D90G
notes: as for B7
- Fold change to WT CD80 (human PD-L1 [3]): 165 fold
- Fold change to WT CD80 (human CTLA-4 [4]): 6 fold
- Fold change to WT CD80 (human CD28 [5]): 17.8 fold
- Ratio of PDL1:CD28 (human PD-L1 [6]): 15 ratio
- MFI at 33.3 nM (human PD-L1 [7]): 27300 MFI
- MFI at 33.3 nM (human CTLA-4 [8]): 8280 MFI
- MFI at 33.3 nM (human CD28 [9]): 1820 MFI

B8: variant CD80 IgV-Fc E35D/D46V/M47I/A71G/F92V (Fc fusion, not shown: a dimerising Fc or GST)
chain: B1 chain with D46V, M47I, K48N, M68V, A71G, F92V
- MFI at 33.3 nM [11]: 7540 MFI

B9: variant CD80 IgV-Fc (inert) H18L/E35D/M47V/V68M/A71G/D90G (Fc fusion)
chain: B1 chain with H18L, M47V, K48N, A71G, D90G
notes: as for B7
- Fold change to WT CD80 (human PD-L1 [3]): 392 fold
- Fold change to WT CD80 (human CTLA-4 [4]): 14.7 fold
- Fold change to WT CD80 (human CD28 [5]): 62.2 fold
- Ratio of PDL1:CD28 (human PD-L1 [6]): 10.2 ratio
- MFI at 33.3 nM (human PD-L1 [7]): 64800 MFI
- MFI at 33.3 nM (human CTLA-4 [8]): 20300 MFI
- MFI at 33.3 nM (human CD28 [9]): 6350 MFI

B13: variant CD80 IgV-Fc (inert) H18F/A26N/E35D/M47V/V68M/A71G/D90K (Fc fusion)
chain: B1 chain with H18F, A26N, M47V, K48N, A71G, D90K
notes: as for B7
- Fold change to WT CD80 (human PD-L1 [3]): 136 fold
- Fold change to WT CD80 (human CTLA-4 [4]): 11 fold
- Fold change to WT CD80 (human CD28 [5]): 31.1 fold
- Ratio of PDL1:CD28 (human PD-L1 [6]): 7.1 ratio
- MFI at 33.3 nM (human PD-L1 [7]): 22400 MFI
- MFI at 33.3 nM (human CTLA-4 [8]): 15200 MFI
- MFI at 33.3 nM (human CD28 [9]): 3170 MFI
